This data set is described as follows: label from the status in PepcDB records.
With “MARAKNVLWIMCDQLRYDYLGCTGHPTLKTPNIDAMAKRGVLFSKAYVQSPICGPSRMSFYTGRYMRSHGSHWNGWPLRVGEPTLGDHLKKIGVRNVLVGKTHMAPDLEGMKALGIPPESMIGVHVAECGFEPYERDDGLHPTGRPRPKYDEYLRKQGFEATNPWEHWANSGAAEDGSLQNGWLLVHADKAARVPEEHSETPYMTRRAMDFISEAETDGKPWCLHLSYIKPHWPYIAPEPYASMYSTDDMIPVIRSERERQNPHPVFGAYMDMRYSRNMARDDAREKVIPTYMGLITQIDDQMGALMKFLEERGLLDTTMIVFTSDHGDYLGDHWMGEKDLFHEQSAKIPLIIIDPSREADATRGTRSDALVEGIDLAPTFVDYFGGKVPGHILEGRSLLPLLRGPTPPDWRKVAFSEYDYAMQDVRLKLNQPIERCRLFMVFDGRWKYIHASGFRPMLYDLETDPEEFLDRGDDPDCAGIIARLQAELFDWALHPNDHITTPREKIAAYADNQLQVKGGVLIGIWDEAELAAIKDGIAQRAKL”, the protein production entry is given as “failed”. Under “MARDGGVSCLRRSEMMSVGGIGGIESAPLDLDEVHVLAVDDSLVDRIVIERLLRITSCKVTAVDSGWRALEFLGLDNEKASAEFDRLKVDLIITDYCMPGMTGYELLKKIKESSNFREVPVVIMSSENVLTRIDRCLEEGAQDFLLKPVKLADVKRLRSHLTKDVKLSNGNKRKLPEDSSSVNSSLPPPSPPLTISPESSPPLTVSTESSDSSPPLSPVEIFSTSPLSSPIDDEDDDVLTSSSEESPIRRQKMRSPGLD” stands “failed”. The entry for “MARGLNRVFLIGALATRPDMRYTPAGLAILDLTLAGQDLLLSDNGGEREVSWYHRVRLLGRQAEMWGDLLDQGQLVFVEGRLEYRQWEREGERRSELQIRADFLDPLDDRGKERAEDSRGQPRLRAALNQVFLMGNLTRDPELRYTPQGTAVARLGLAVNERRQGAEERTHFVEVQAWRDLAEWAAELRKGDGLFVIGRLVNDSWTSSSGERRFQTRVEALRLERPTRGPAQAGGSRSREVQTGGVDIDEGLEDFPPEEELPF” is “not failed”. Under “MARIHQLDEHLSNMIAAGEVVERPSGIVKELVENSIDAKAKHIEIQILQGGIDCITIIDDGCGMDAQDATLAFERHATSKIQAVDDLWKISTMGFRGEALPSIASVSQVTLRTNDGIDSSEVIIYYGTLKSARPCGTPKGTMLEVRNLFQKTPARFKHLKSPQYEFSLISDVVQKFAISHPNIGFELSHDGRSVFKTKGNGNLREVLMQIYGRDGAKTAIELHGQDLDYTIRGYALQPQFQRATKYYVLLYINGRMIRNYHLQKAVMDAYAPYMPKDRYPIAVINMEMDAQLVDVNVHPSKWEIRLSKEKQLEKLLYQTIKAALMQDMEVPNIQARKENKKEKIEIQELQFTYPRDQEVKKLHTEVNDSFVHYNGKPKQTITEESKVQVDKVEPQEAPVEAEKQESVDKKQELSESQSSDTQAPIKDQVIEEVSTTKQAETLFKDIVPIQEVVMKAEQEPASESINPSLPQLHVIGQFHNSYILAEGEKGLYIIDQHAAQERYHYEMIQKQILSGVKDTQPLLIPITVETTISAVSRIDDLNALLEQVGIHFEVFGNTTLLCRELPIWLKDTKEEAFLQDMIDLWQKDDEISLDKLRKHTIATMACHSSIRFHRSLTMEEMKQVILDLGKCEQPFHCPHGRPTLICYEDKDLIHDFERG” stands “failed”; under “MARIIVKNGYLKGGSEKTSAHLNNLVKYIATRDGVEKIKNGRELWHATKKQQTLIGEILREFPDAKEMFEYEDYLANPNRENASEFITIALEQHLDKIGDREKYLDYIANRPRVEKFESHGLFTAGDAPLVLSQVAEEVAAHTGNVWTPIISLRREDAARLDYDNAAAWKALLSSKAMELAENLKIHPDHLKWYGAFHNESHHPHIHMVCYSTDPREGYLTKQGIRKMKSSLANEIFRQELIPLYGEKTQRRDELKEQSAESLRELIRQIKGGVLVSERMEQLLTHLAERLQTVSGKKQYGYLKPELKNVVDEIVDDLAQDSRVSEAYRMWWETKGRIESIYTETPSEPPPLSHCDDFKPIRNMVIQEALLIGNMTFEEPASVETALPEPENDLEMSLSDIEDEEDQEPIDDSVGRPSSDEASAGKESSDSWWTEEYRQAKQYLCGDEDAGVPQDFRKAHELFMAEADKNNPLALYDLGRMSADGLGCEADADAAYGWYEKALVVLHAAEEAKPWKYTEYRIGKMYAAGLGAEQDYLQASDWLTLSADKKYKYAQYSLGGLYYHGKGVEQDHVTAFALYTRSADQSFPYASFELGKMLRDGIGCAKNQQDSDRRFKEAFLGFVSLEEQSHDDKLQYRLGWMLLNGIGTDKDEARAKEYFEKAASVGNPFACYQLAKFILSDEKAQPQDVEKALGYLRKAVEAENPYAAYFLGKLYEKGQHVPQNTAEAMRLYTLSAEQDNEFAAYRLGKLYLDGDGVLKDVESAIRWLTFAADRKNQFAEYALGVLYFKGEDIPKDVPKALEYLKRSAGQGNQFAQYRLGKIYLMGEDVPKDIQTALQFLTAAAEQGNQYAQYTLGKLYLIGKDVPKDKETAVRWFTLSAAQGNIYAQFFLDHIDNFKDPSVLLAGTRLLHHMSRIFADNAPPLKLPGQRTDRKLLRKLREKKQAQGHARDDHEQTMSL”, “failed”; under “MARKKAMKVLRKQKKRENMQRFTQKQNIGRACLTAKEFRLLQRMSHSSKALRNVGLYTMKQSYLNHNRMATVKEVDTAMQNDMNYSGIQSNSVQAIRRSLFTEVKSFFKALEQWKKNPEKFTGRPKFPNYSRSTDKRIIEIYQVPKVDENGYWIIPMNVAFRKKFGSIQIRMPKNLRNKKISYIEIVPKQKGRFFEVHYTYEMHVSQMKKPSTTTSNALSCDLGVDRLVSCVTHTGDAFLIDGKKLKSINQYFNKMICNLQQKNMDNGISKRIVTNKMAALWHKRERQINGYIAQTVGLLFKKVKEFDIDTIVIGYNAGWKQNSHMGKKNNQKFVQIPFQKLMAAIENKCIKEGIRFFKQEESYTSKASFLDKDPVPVWSKNDRTQYRFSGKRITRGLYQSKAGTCIHADINGAMNILKKSGVVELDDNLKVKTPILLEVQKRKAIASRIA”, “failed”. Take “MARLSLVPGRGGLVTEWTVQGQPILYFDRERFQDPSLSVRGGIPILFPICGNLPQDQFNHAGKSYRLKQHGFARDLPWEVIGQQTQDNARLDLRLSHNDATLEAFPFAFELVFSYQLQGHSLRIEQRIANLGDQRMPFSLGFHPYFFCREKLGITLAIPANDYLDQKTGDCHGYDGQLNLTSPELDLAFTQISQPRAHFIDPDRNLKIEVSFSELYQTLVLWTVAGKDYLCLEPLEHHHHHH”: the protein production result was “failed”.

“MARRKRRNFSKQASEILNEYFYSHLSNPYPSEEAKEELARKCGITVAQVSNWFGNKRIRYKKNIGKAQEEANLYAAKKAAGASP”: the protein production entry was “not failed”. The entry for “MARTITFDIPSQYKLVDLIGEGAYGTVCSAIHKPSGIKVAIKKIQPFSKKLFVTRTIREIKLLRYFHEHENIISILDKVRPVSIDKLNAVYLVEELMETDLQKVINNQNSGFSTLSDDHVQYFTYQILRALKSIHSAQVIHRDIKPSNLLLNSNCDLKVCDFGLARCLASSSDSRETLVGFMTEYVATRWYRAPEIMLTFQEYTTAMDIWSCGCILAEMVSGKPLFPGRDYHHQLWLILEVLGTPSFEDFNQIKSKRAKEYIANLPMRPPLPWETVWSKTDLNPDMIDLLDKMLQFNPDKRISAAEALRHPYLAMYHDPSDEPEYPPLNLDDEFWKLDNKIMRPEEEEEVPIEMLKDMLYDELMKTME” is “failed”; for “MARTRSADYENIRDTIIERAAAMFARQGYSETSIGDIARACECSKSRLYHYFDSKEAVLRDMLTTHVDSLLERCRQVLYGSNEPKTRFLQIVKLFLEIYATSRDRHVVMLTCLDALPEDQRKALIAKQRELIAYVRDALLQLRPDMAANRTLAHVDTMLFFGMINWTYTWYKADGSVSPDALAERTVQLFLDGYLNLLSA” it is “not failed”; for “MASATEDPVLERYFKGHKAAITSLDLSPNGKQLATASWDTFLMLWNFKPHARAYRYVGHKDVVTSVQFSPHGNLLASASRDRTVRLWIPDKRGKFSEFKAHTAPVRSVDFSADGQFLATASEDKSIKVWSMYRQRFLYSLYRHTHWVRCAKFSPDGRLIVSCSEDKTIKIWDTTNKQCVNNFSDSVGFANFVDFNPSGTCIASAGSDQTVKVWDVRVNKLLQHYQVHSGGVNCISFHPSGNYLITASSDGTLKILDLLEGRLIYTLQGHTGPVFTVSFSKGGELFASGGADTQVLLWRTNFDELHCKGLTKRNLKRLHFDSPPHLLDIYPRTPHPHEEKVETVEINPKLEVIDLQISTPPVMDILSFDSTTTTETSGRTLPDKGEEACGYFLNPSLMSPECLPTTTKKKTEDMSDLPCESQRSIPLAVTDALEHIMEQLNVLTQTVSILEQRLTLTEDKLKDCLENQQKLFSAVQQKS” it is “failed”.

Turning to “MASDINAKLRQKQYEAAVLEFAGDRKGYFVVASDDPQFASLLRQTLTKHLAIPGDAMSTVANPDHILRELKNVTMRRKTVLLFLERILEGRDTNLLVRQLKSAYPDLKIIVITGETERNRLVLLHEVGADNFITKPVSMNTLIEKMAFTIKPLGKLGQLIDQAREFVHQNLPEQGIKLCRQILELKPGSAAGYLVMGEAYQHLGKLDKARECYEEASRNAELYLEPLRRLADIHGEMGEPTEQLRYLERLDQLSPLNVERKVDMGAIHLELGNQEKADELFDTAVQQATREALSYIADISGRIAGIYNGRDPQRAEHFLRRALDAKGDMLDASDLDTFNRLGIALRRQGKWQEALTEYHKALRVAPEDENLFYNMGMACAEGRDFREARANMLKALTINPELPRRDPVMAYNIGLVFMRAGGREYAERCLNIALELDPGFTKAREALERLG”, the protein production result is reported as “failed”. Under “MASDREEFNLCGPTHLTTVDWGNEDHQRCVAACLVQGIYIVEQDRQLKREGTEALASPWWESFNFKLIRHLKDDADFSIFGGIFEYKSLQPDVVDSGVPRYVIAFRGTLTKADSITRDIELDIHIIRNGLHRTSRFEIAMQAVRSMADSVGASSFWLTGHSLGAAMALLAGKTMGKSGVYIKSLLFNPPYVSPPIERIANERVRHGIRFAGSLITAGLALSRTLKQTQQPQQQQLQLQNLTEDPLEALSSWLPNIHVNPGDHLCSEYIGFFEHRGNMEQIGYGAGIVERMAMQHSLGGLLMDAMGVSNAVEVEEPVHVIPSANLIVNKTISEDYKDAHGIHQWWRDDQDLVSHIYMYK” stands “failed”. Under “MASEHFDMWESRFSADGYLFGTAPNAFLASCHDLLPKQGRALAIADGEGRNGVFLAECGLSVLSVDFSPTAQAKAHKLAAERGVTIETRTADLLSWQWPGGFDVIAGIFFQFVEPEQRPQIFQQIRAALKPGALLLIEGYRPKQLAYKTGGPSRAENLYTRELLEQAFGDFDNLSIRERDSEIVEGAGHAGLSALIDLIGWKPKLEHHHHHH” stands “not failed”; under “MASEWNVAAERHSALHYLYRLGDAVLIAVCGIAMGALYFHDGIRSAAPVNGFLTMLCALGALLIFPAFGIYESWRGRSRAVLGLRIAAAWTLVFISGLLGAFLIHQIGAVSRVWSMGWFIGTGVMLALSRVVMFRMLANVRQQGINAKRVLIFGYGPLGREMYDRVQHFRDAGYRVVGVYDEESDAIPYDVTPLRQIEEVSGFVRDHGVREIWLTLPMAACRDLSGVVRQFRNEMIDIRWVPDVSSVELLGHRFSEFMGLPVIDLNSPPVSGITGVVKASFDRVFSLGVLVCLSPLLLLIAAMVKLSSPGPVLFRQQRLGIDGQPFNVYKFRTMRQHQDGGGVTQAVRGDPRVTRVGAFLRRTSLDELPQFINVLRGEMSVVGPRPHAMEHNELYKELIDRYMLRHRVKPGITGWAQINGLRGQTDTVEKMRKRIEFDIYYIQHWSFQLDLRIILRTALHGWTGTTAY”, “failed”; under “MASFCNSWKRKHNEAIKLSEEIDGMILERSSLAETSSYARGHASYMRRKITILANGVQTLKNLLAESQGKSISAKEMSRCKDMVEDLRSKAYQMASALDMLKFSNIGSLLGQDDIMSRVIDMDNQEIVGFQRTTMKGKLKGVMHLKREALAMNMELGLQTRLIDRLDHHVDVSASDVEELQRSIDTGVCMTLLLSVVVVVFGLSEFVKFGRRRILG”, “failed”.

(Values after a protein production outcome set (Wang et al. 2014).)
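Note: failed if final PepcDB status was selected cloned or expressed and not failed if soluble or beyond.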
